Laboratory results published in article PMC12809495, “Potential 14-3-3 binding sites in sirtuins reveal extended phosphosite-recognition modes” (Acta Crystallographica Section F: Structural Biology …, 2026).
Where “and” joins values, the source holds several entries; their conditions need not be identical. Identical values can stand only once. Where no end group is shown, it is not given here. [ ]: non-standard residue; d: D form. pS = N[C@@H](COP(=O)(O)O)C(=O)O

B4: 14-3-3σ-ΔC (C-terminally truncated human 14-3-3σ) (domain or fragment, UniProt P31947 1-231, looked up)
chain: MERASLIQKAKLAEQAERYEDMAAFMKGAVEKGEELSCEERNLLSVAYKNVVGGQRAAWRVLSSIEQKSNEEGSEEKGPEVREYREKVETELQGVCDTVLGLLDSHLIKEAGDAESRVFYLKMKGDYYRYLAEVATGDDKKRIIDSARSAYQEAMDISKKEMPPTNPIRLGLALNFSVFHYEIANSPEEAISLAKTTFDEAMADLHTLSEDSYKDSTLIMQLLRDNLTLWT
notes: 14-3-3σ, human, C-terminally truncated gene fragment (ΔC) cloned into pPROEX-HTb; the structures show 'all 231 residues of the 14-3-3 monomer'; No removal of the His6 tag is described; The dimer in the crystals is formed with a symmetry mate; also called 14-3-3-ΔC; source: E. coli BL21 Rosetta (DE3), purified (nickel-nitrilotriacetic acid column)

What was measured:
[1] = target: B4; experiment: MST; label-free, intrinsic fluorescence of the 14-3-3 protein; 0.6 µM 14-3-3 protein titrated with peptide; 25 mM MES pH 6.5, 5 mM MgCl2, 5 mM CaCl2; 25°C; details: both partners purified
[2] = target: 14-3-3σ-ΔC (C-terminally truncated human 14-3-3σ) (human) (UniProt P31947); experiment: ITC; 150 µM 14-3-3σ-ΔC in the cell, fourfold-concentrated phosphopeptide in the needle; 2 µl injections; 25°C; one-site fit; apparent
[3] = target: T1, 14-3-3 epsilon (Homo sapiens); experiment: MST
T1 chain: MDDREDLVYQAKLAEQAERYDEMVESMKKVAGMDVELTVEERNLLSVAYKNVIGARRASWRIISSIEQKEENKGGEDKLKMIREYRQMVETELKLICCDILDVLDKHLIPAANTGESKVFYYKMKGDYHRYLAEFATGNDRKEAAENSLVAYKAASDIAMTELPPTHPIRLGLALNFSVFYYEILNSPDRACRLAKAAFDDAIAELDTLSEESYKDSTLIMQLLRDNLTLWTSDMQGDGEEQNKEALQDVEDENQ

[4] = target: T2, 14-3-3 theta (Homo sapiens); experiment: MST
T2 chain: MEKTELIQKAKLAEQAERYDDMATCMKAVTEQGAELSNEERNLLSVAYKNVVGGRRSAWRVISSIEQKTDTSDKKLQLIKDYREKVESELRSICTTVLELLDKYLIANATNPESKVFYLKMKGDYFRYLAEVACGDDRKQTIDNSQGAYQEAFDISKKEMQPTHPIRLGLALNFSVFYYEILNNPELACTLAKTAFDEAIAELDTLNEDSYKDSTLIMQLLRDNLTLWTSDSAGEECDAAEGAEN

[5] = target: 14-3-3σ-ΔC (C-terminally truncated human 14-3-3σ) (human) (UniProt P31947); experiment: MST; label-free, intrinsic fluorescence of the 14-3-3 protein; 0.6 µM 14-3-3 protein titrated with peptide; 25 mM MES pH 6.5, 5 mM MgCl2, 5 mM CaCl2; 25°C
[6] = target: T3, 14-3-3σ-ΔC (C-terminally truncated human 14-3-3σ) (human, UniProt P31947 1-231); experiment: MST
T3 chain: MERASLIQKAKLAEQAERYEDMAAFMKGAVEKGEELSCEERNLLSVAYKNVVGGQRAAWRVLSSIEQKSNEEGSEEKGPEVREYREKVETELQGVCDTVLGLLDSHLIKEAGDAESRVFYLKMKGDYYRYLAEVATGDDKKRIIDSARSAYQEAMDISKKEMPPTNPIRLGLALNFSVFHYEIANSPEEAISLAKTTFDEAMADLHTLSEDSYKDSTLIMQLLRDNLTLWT

[7] = target: the molecule itself; experiment: crystal structure; protein and peptide mixed 1:1.5; 0.1 M HEPES-NaOH pH 7.5, 0.2 M CaCl2, 24-28% PEG 400, 5% glycerol, 1 mM TCEP, 4°C

B1: Sirt3^S103 nonphosphorylated peptide (peptide)
chain: GRRSISFSVGA
modifications: none (nonphosphorylated Ser103). Limits are not given; they are taken from the 11-residue peptide in PDB 8ANC entity 2 (GRRSISFSVGA, S103 at position 6), assuming the same endecamer …
Kd [1]: ~881 µM

B2: Sirt1^pS670 phospho-endecamer peptide (peptide)
chain: VLSSS[pS]CGSNS
modifications: also: phosphoserine at 670 (place in chain not given here)
Kd [2]: 5 µM | Kd [3]: > 183 µM | Kd [4]: 93 µM

B3: Sirt3^pS103 phospho-endecamer peptide (peptide)
chain: GRRSI[pS]FSVGA
modifications: also: phosphoserine at 103 (place in chain not given here)
Kd [5]: 1.5 µM and 2.1 µM | Kd [3]: > 267 µM | Kd [6]: 10 µM | Kd [4]: 52 µM

B4
binding result [7]: binds
